According to patent US20090311784A1 (WISCONSIN ALUMNI RESEARCH FOUNDATION, published 2009):
Numbering of substitutions follows the chain as printed. Names may count otherwise.

T1: human ribonuclease inhibitor (human, UniProt P13489 2-461)
T1 construct: also called hRI; hR1
T1 sequence: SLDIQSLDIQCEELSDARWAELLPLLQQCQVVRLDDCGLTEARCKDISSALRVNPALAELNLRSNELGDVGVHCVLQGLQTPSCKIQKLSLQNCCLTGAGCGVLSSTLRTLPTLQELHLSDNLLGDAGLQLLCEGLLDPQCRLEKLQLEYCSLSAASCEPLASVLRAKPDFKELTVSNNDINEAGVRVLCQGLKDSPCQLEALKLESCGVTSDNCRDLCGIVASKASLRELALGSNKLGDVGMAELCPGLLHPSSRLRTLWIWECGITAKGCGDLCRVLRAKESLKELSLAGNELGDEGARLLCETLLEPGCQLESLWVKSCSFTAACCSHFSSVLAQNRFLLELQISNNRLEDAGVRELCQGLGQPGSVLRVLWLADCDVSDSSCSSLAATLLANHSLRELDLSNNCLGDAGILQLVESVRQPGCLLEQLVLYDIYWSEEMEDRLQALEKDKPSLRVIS

B1: G38R/R39G/N67R/N88R RNase 1 (enzyme)
chain: KESRAKKFQRQHMDSDSSPSSSSTYCNQMMRRRNMTQRGCKPVNTFVHEPLVDVQNVCFQEKVTCKRGQGNCYKSNSSMHITDCRLTRGSRYPNCAYRTSPKERHIIVACEGSPYVPVHFDASVEDST
notes: Made by site-directed mutagenesis and purified like wild-type RNase 1
B2: R39D/N88A/G89D/R91D RNase 1 (enzyme)
chain: B1 chain with R38G, G39D, R67N, R88A, G89D, R91D
B3: R39D/N67D/N88A/G89D/R91D RNase 1 (enzyme)
chain: B1 chain with R38G, G39D, R67D, R88A, G89D, R91D
B4: R39L/N67L/N88A/G89L/R91L RNase 1 (enzyme)
chain: B1 chain with R38G, G39L, R67L, R88A, G89L, R91L
B5: R39D/N67D/N88A/G89D RNase 1 (enzyme)
chain: B1 chain with R38G, G39D, R67D, R88A, G89D
B6: R39D/N67D/G89D/R91D RNase 1 (enzyme)
chain: B1 chain with R38G, G39D, R67D, R88N, G89D, R91D
B7: R39D/N67D/N88A/R91D RNase 1 (enzyme)
chain: B1 chain with R38G, G39D, R67D, R88A, R91D
B8: N67D/N88A/G89D/R91D RNase 1 (enzyme)
chain: B1 chain with R38G, G39R, R67D, R88A, G89D, R91D
B9: fluorescein-labeled G88R RNase A (enzyme)
chain: KETAAAKFERQHMDSSTSCASSSNYCNQMMKSRNLTKDRCKPVNTFVHESLADVQAVCSQKNVACKNGQTNCYQSYSTMSITDCRETRSSKYPNCAYKTTQANKHIIVACEGNPYVPVHFDASV
modifications: fluorescein on Cys19 (F*-A19C)
notes: also called F*-A19C G88R RNase A; fluorescently-labeled G88R RNase A

Tests used:
[1] = molecular target: T1, human ribonuclease inhibitor; assay: calculated from Kd: ΔΔG = -RTln(Kd wild-type/Kd variant)
Description: (§1) Values for Kd were obtained by nonlinear least-squares analysis of the binding isotherm using the program […] 5.5 (Red Rock Software, Salt Lake City, Utah).

[2] = molecular target: T1, human ribonuclease inhibitor; assay: ΔΔG of R39D/N67D/N88A/G89D/R91D RNase 1 minus ΔΔG of this variant
Description: as §1

[3] = molecular target: T1, human ribonuclease inhibitor; assay: fluorescence competition assay with fluorescein-labeled G88R RNase A for hRI
Description: as §1
Data points are the mean (±SE) of at least three separate measurements.

[4] = molecular target: T1, human ribonuclease inhibitor; assay: constant used in the fluorescence competition assay
Description: as §1

Row | Binder | ΔΔG [1] [kcal/mol] | ΔΔΔG [2] [kcal/mol] | Kd [3] [nM] | Kd [4] [nM]
1 | B1 | 3 |  |  | 
2 | B2 | 7.6 | 1.9 |  | 
3 | B3 | 9.5 |  |  | 
4 | B4 | 7.1 | 2.4 | 30 | 
5 | B5 | 6.7 | 2.8 |  | 
6 | B6 | 9.1 | 0.4 | 1000 | 
7 | B7 | 8.4 | 1.1 |  | 
8 | B8 | 7.3 | 2.2 |  | 
9 | B9 |  |  |  | 1.4
